We go through 19 molecules from patent US20190338038A1 (CELLERANT THERAPEUTICS, published 2019).

T1: human interleukin 1 receptor accessory protein, membrane-bound form on cells (human, UniProt Q9NPH3 21-570)
T1 construct: On IL1-RAP-transfected 293 cells, AML cell lines (EOL-1, HNT-34, OCI-AML2, OCI-AML3), primary AML cells and HEK-Blue IL-1β cells; also called IL1-RAP; receptor IL1-RAP
T1 sequence: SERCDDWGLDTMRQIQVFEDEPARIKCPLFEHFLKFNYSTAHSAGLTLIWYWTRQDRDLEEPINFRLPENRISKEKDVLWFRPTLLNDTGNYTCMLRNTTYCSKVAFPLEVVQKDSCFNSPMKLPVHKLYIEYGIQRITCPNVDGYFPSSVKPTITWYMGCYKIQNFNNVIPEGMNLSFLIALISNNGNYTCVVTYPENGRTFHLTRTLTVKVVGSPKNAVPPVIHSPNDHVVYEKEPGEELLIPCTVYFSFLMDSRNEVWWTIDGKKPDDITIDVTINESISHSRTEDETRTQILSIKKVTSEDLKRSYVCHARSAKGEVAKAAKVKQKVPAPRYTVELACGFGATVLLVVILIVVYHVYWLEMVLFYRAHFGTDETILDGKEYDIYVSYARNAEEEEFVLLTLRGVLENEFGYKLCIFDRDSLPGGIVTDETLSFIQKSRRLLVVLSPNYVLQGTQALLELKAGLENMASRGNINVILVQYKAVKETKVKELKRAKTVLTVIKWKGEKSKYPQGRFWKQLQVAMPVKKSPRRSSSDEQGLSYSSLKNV

T2: recombinant mouse IL1-RAP (mouse, UniProt Q61730 21-359, limits assumed)
T2 sequence (looked up): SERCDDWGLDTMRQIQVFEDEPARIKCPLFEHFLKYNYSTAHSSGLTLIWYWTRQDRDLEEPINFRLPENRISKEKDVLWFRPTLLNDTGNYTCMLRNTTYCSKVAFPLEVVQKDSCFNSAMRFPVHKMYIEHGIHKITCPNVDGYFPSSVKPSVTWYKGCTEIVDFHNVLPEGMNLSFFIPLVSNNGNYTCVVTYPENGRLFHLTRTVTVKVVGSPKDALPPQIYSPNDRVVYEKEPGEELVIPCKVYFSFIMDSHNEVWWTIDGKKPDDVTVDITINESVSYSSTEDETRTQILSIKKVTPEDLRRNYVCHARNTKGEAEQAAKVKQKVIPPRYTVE

B1: h54.9D7 HC2 / Chi54.9D7 LC#1 (antibody, V domains shown)
VH: QVQLVQSGAEVKKPGASVKVSCKASGYIFITYWMNWVRQAPGQGLEWVGQIFPASGTTYYAQKFQGRVTMTVDTSTSTVYMELSSLRSEDTAVYYCARTDFYRYDGGYALDYWGQGTLVTVSS
VL: DIVLTQSPISLAVFLGQRATISCRASQSVSTSGYSSMHWYQQKAGQPPKLLIKYASDLESGVPVRFSGSGSGTDFILNIHPVEVEDIATYYCHHSWGIPMYTFGGGTKLEIKR
notes: also called humanized 54.9D7 HC2 with the chimeric light chain
B2: h54.9D7 HC1 / Chi54.9D7 LC#1 (antibody, V domains shown)
VH: B1 VH with V48M, V72R
VL: B1 VL
notes: also called humanized 54.9D7 HC1 with the chimeric light chain
B3: anti-IL1-RAP antibody clone 50.6C12 (antibody, V domains shown)
VH: EVQLQQSGPELVKPGDSVKMSCKASGYTFTDYYMDWVKQSHGKSLEWIGYIYPHNGGTTYNQKFKGKATLTVDKSSSTAYMELHSLTSEDSAVYYCARSPFNYKDPMDWWGQGTSVTVSS
VL: DIQMTQSPASLSASVGETVTITCRASGNIHNYLAWYQQKQGKSPHLLVYNAETLADGVPSRFSGSGSGTQYSLKINSLQPEDFGTYYCQHFWSTPWTFGGGTKLEIK
notes: Mouse monoclonal antibody
B4: anti-IL1-RAP antibody clone 42.1D3 (antibody, V domains shown)
VH: QIQLVQSGPELKKPGETVNISCKASGYTFTDFSMHWVKQAPGKGLQWMGWINTETGEPTYADDFEARFAFSLATSANTAYLKINNLKNEDTATYFCARFFLHFDYWGQGTTLTVSS
VL: DIVLTQSPATLSVTPGDSVSLSCRASQSINNDLHWYQQKSHESPRLLIKYASQSISGIPSRFSGSGSGTDFTLRINSVETEDFRMYFCQQSNNWPLTFGAGTKLEVK
notes: Mouse monoclonal antibody
B5: anti-IL1-RAP antibody clone 54.8H8 (antibody, V domains shown)
VH: EVQLVESGGGLVKPGGSLKLSCAASGFSFSSYGMSWVRQSPEKRLEWVAEITSGGSHTYYPDTVTGRFTISRDNAKNTLYLEMSSLRSEDTAMYYCSRSYGNYVMDYWGQGTSVTVSS
VL: QIVLTQSPAIMSASPGEKVTMTCSASSSVIYIYWFQQKPGSSPRLLIYDTSNLASGVPLRFSGSGSGTSYSLTISRMETEDVSTYYCQQWNSYPPTFGGGTKLEIK
notes: Mouse monoclonal antibody
B6: anti-IL1-RAP antibody clone 54.15B5 (antibody, V domains shown)
VH: KWSWWSLGGGLAKPGGSLKLSCTASGFTFTSYVMSWVRQSPEKRLEWVAEISRGGSHTYYSDTVTGRFTISRDNANNALYLEMSSVRSADTAMYFCTRAYGNSEMDFWGQGTSVTVSS
VL: QIVLTQSPAIMSASPGEKVTMTCSASSSISYIHWYRQKPGTSPKRWIYDTSNLASGVPARFSGSGSGTSYSLTIINMEAEDAATYYCHQRTYYPLTFGGGTRLELK
notes: Mouse monoclonal antibody
B7: anti-IL1-RAP antibody clone 46.1D2 (antibody, V domains shown)
VH: QVQLQQSGPELVKPGASVKISCKASGYGFSSSWMNWVKQRPGKGLEWIGRIYPGDGNTNYYGEFKGKATLTADKSSSTAYMQLNSLTSEDSAVYFCARNDGYPAWFTYWGQGTLVTVSA
VL: DIQMTQTTSSLSASLGDRVTISCSASQGISNYLNWYQQKPDGSVKLLIYYTSTLHSGVPSRFSGSGSGTDYSLTISNLEPEDIATYYCQQYSYLPWTFGGGTKLEIK
notes: Mouse monoclonal antibody
B8: anti-IL1-RAP antibody clone 50.3G7 (antibody, V domains shown)
VH: QIQLVQSGPELKKPGETVKISCKASGYTFTNYGMHWVKQSPGEGLKWMGWINTYTGEPTYADDFKGRFGFSLETSASSAYLQINDLKNEDMATYFCARYYGNFDYWGQGTTLTVSS
VL: DIVLTQSPATLSVTPGDSVSLSCRASQSISNNLHWYQQKSHESPRLLIKYASQSISGIPSRFSGSGSGTDFTLSINSVETEDFGVYFCQQSHNWPHTFGGGTKLEIKR
notes: Mouse monoclonal antibody
B9: anti-IL1-RAP antibody clone 54.9E9 (antibody, V domains shown)
VH: QIQLVQSGPELKKPGETVKISCKASSYTFTDYSMHWVKQAPGKGLKWMGWINTETGEPRYADDFKGRFAFSLETSASTAYLQINNLKNEDTATYFCARFLLHFDYWGQGTILTVSS
VL: QIVLTQSPAIMSASPGEKVTMTCSASSSVSYMHWYQQKTGTSPKRLIYDTSKLASGVPARFSGSGSGTSYSLTISSMEAEDAATYYCHQRSYYPLTFGAGAKLELK
notes: Mouse monoclonal antibody
B10: 42.3G6 (antibody, V domains shown)
VH: QIQLVQSGPELKKPGETVKISCKASGYTFTDYSMHWVKQAPEKGLKWMGWINTETGEPTYADDFKGRFAFSLETSASTAYLQINNLKNEDTATYFCARGSFPWFTYWGQGTLVTVSA
VL: DIVMTQAAFSNPVTLGTSASISCRSSKSLLHSNGITYLYWYLQKPGQSPQLLIYQMSNLASGVPDRFSSSGSGTDFTLRISRVEAEDVGVYYCAQNLELPFTFGSGTKLEIK
notes: also called anti-IL1-RAP antibody clone 42.3G6
B11: 46.8G1 (antibody, V domains shown)
VH: QVQLQQSGPELVKPGASVKISCTASGYAFSTSWMNWVKQRPGKGLEWIGRIYPGDGDSNYNGKFKGKATLTADKSSSTAYMQLSSLTSEDSAVYFCARRDYYGFFDVWGAGTTVTVSS
VL: DIQMTQSPASLSVSVGETVTITCRASENIYSNLVWYQQKQGKSPQLLVYAATNLADGVPSRFSGSGSDTQYSLKINSLQSEDFGSYYCLHFWGPPYMYTFGGGTNLEMKR
notes: also called anti-IL1-RAP antibody clone 46.8G1
B12: H54.9D7 HC1 / H54.9D7 LC1 (antibody, V domains shown)
VH: B1 VH with V48M, V72R
VL: DIQMTQSPSSLSASVGDRVTITCRASQSVSTSGYSSMHWYQQKPGKAPKLLIYYASDLESGVPSRFSGSGSGTDFTLTISSLQPEDFATYYCHHSWGIPMYTFGQGTKLEIKR
B13: h54.9D7 HC2 / h54.9D7 LC1 (antibody, V domains shown)
VH: B1 VH
VL: B12 VL
B14: Chi54.9D7 HC#1 / h54.9D7 LC2 (antibody, V domains shown)
VH: HVQLQQSGPELVRPGASVKLSCKASGYIFITYWMNWVKQRPGQGLEWVGQIFPASGTTYYNELFEGKATLTVDTSSNTAYMHLTSLTSEDSAVYYCARTDFYRYDGGYALDYWGQGTSLTVSS
VL: B12 VL with M4L, V19A, L82V
B15: Chi54.9D7 HC#1 / h54.9D7 LC1 (antibody, V domains shown)
VH: B14 VH
VL: B12 VL
B16: h54.9D7 HC1 / h54.9D7 LC2 (antibody, V domains shown)
VH: B1 VH with V48M, V72R
VL: B12 VL with M4L, V19A, L82V
B17: H54.9D7 HC3 / H54.9D7 LC1 (antibody, V domains shown)
VH: B1 VH with V20L, V68A, M70L, V79A, V119L
VL: B12 VL
B18: h54.9D7 HC2 / h54.9D7 LC2 (antibody, V domains shown)
VH: B1 VH
VL: B12 VL with M4L, V19A, L82V
B19: h54.9D7 HC3 / h54.9D7 LC2 (antibody, V domains shown)
VH: B1 VH with V20L, V68A, M70L, V79A, V119L
VL: B12 VL with M4L, V19A, L82V

Where a chain is given by its changes, count along the chain named.

The first assay addresses T1, human interleukin 1 receptor accessory …. The assay is described as follows: FACS on EOL-1 cells, FITC; antibody concentration not given.
B1 yielded an MFI of 75.1.
The molecule B2 came in with an MFI of 21.3.

The target is the same in another assay. The assay is described as follows: cell-based or functional assay.
What is called % Inhibition is the share of the control response that was lost under treatment. For B3, the “% Inhibition at 10 ug/mL of IL-1β-induced NF-κB signaling, HEK-Blue IL-1β cells” value (“% Inhibition at 10 ug/mL” below) is 69% and the “IC50 of inhibition of IL-1β-induced NF-κB signaling, HEK-Blue IL-1β cells” value (from here on “IC50 of inhibition … HEK-Blue IL-1β cells”) was found to be 0.41 µg/mL.
Regarding B4, the “% Inhibition at 10 ug/mL” value came to 59% and the “IC50 of inhibition … HEK-Blue IL-1β cells” value was 7.99 µg/mL.
For B5 the same measures were 50.8% and 2.05 µg/mL.
Consider B6, for which the “% Inhibition at 10 ug/mL” value was determined as 58.1% and the “IC50 of inhibition … HEK-Blue IL-1β cells” value came out at 0.29 µg/mL.
Take B7: the “% Inhibition at 10 ug/mL” value turned out to be 69.2% and the “IC50 of inhibition … HEK-Blue IL-1β cells” value turned out to be 0.13 µg/mL.
Turning to B8, the “% Inhibition at 10 ug/mL” value was 48% and the “IC50 of inhibition … HEK-Blue IL-1β cells” value amounted to 12.6 µg/mL.
The corresponding values for B9 are 69.1% and 1.3 µg/mL.

In a further assay the target is T2, recombinant mouse IL1-RAP. Description: FACS (GeoMean), bar series mIL1RAP.
For B3, the binding result was “no binding (tested: not given)”.
With B4, the binding result is “no binding (tested: not given)”.
On the same count and under the same terms, the same measure for B10: “no binding (tested: not given)”.
For the molecule B11, the binding result is “no binding (tested: not given)”.
On the same count and under the same terms, the same measure for B5: “no binding (tested: not given)”; for B6: “no binding (tested: not given)”.
With B7, the binding result is “no binding (tested: not given)”.
As to B8, the binding result is “no binding (tested: not given)”.
Same read-out and setting: in the case of B9 it was “no binding (tested: not given)”.

The target in the next assay is human interleukin 1 receptor accessory protein, membrane-bound form on cells (human) (UniProt Q9NPH3). Description: FACS on EOL-1 cells, FITC; antibody concentration not given.
B12: the MFI stood at 4.9.
Same read-out and setting: the same measure for B13: 5.25.
In the case of B14, the MFI was 7.8.
B15 returned an MFI of 7.96.
Still for that read-out and setting: in the case of B16 it was 5.14; in that of B17, 4.86.
B18 registered an MFI of 5.69.
B19 returned an MFI of 5.49.
